According to paper PMC9482650, “Quantitative fragmentomics allow affinity mapping of interactomes” (Nature Communications, 2022):

B1: LRRC4B, Q9NT99 (peptide)
chain: SKENVQETQI
B2: TRPC5, Q9UL62 (peptide)
chain: GQEEQVTTRL
B3: KCNJ1, P48048 (peptide)
chain: EVNETDDTKM
B4: ASNSD1, Q9NWL6 (peptide)
chain: NLSIEKETKL

Legend:
Assay in all cases: holdup assay
Set-up in all cases: key: below the threshold = too weak to quantify, mostly under pKd 3.1 to 4
Settings in all cases: plain residues with an end cap or a label only (N-terminal biotin on a linker: ado-ado)
MAGI1_2, Q96QZ7 = biological target: MAGI1_2, Q96QZ7
MAGI1_2, Q96QZ7, sequence (Q96QZ7 456-580): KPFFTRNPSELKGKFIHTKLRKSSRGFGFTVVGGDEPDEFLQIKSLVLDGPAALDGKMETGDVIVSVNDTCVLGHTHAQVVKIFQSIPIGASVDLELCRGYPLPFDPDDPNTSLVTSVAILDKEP

TJP1_2, Q07157 = biological target: TJP1_2, Q07157
TJP1_2, Q07157, sequence (Q07157 181-274): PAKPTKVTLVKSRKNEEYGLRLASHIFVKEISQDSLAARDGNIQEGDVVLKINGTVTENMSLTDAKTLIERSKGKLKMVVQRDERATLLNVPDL

NHERF3_3, Q5T2W1 = biological target: T1, NHERF3_3, Q5T2W1
T1 sequence (Q5T2W1 238-333, limits assumed, looked up): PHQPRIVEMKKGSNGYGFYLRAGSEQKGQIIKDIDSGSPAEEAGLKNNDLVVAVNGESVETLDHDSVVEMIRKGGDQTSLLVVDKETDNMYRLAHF

TJP2_1, Q9UDY2 = biological target: TJP2_1, Q9UDY2
TJP2_1, Q9UDY2, sequence (Q9UDY2 24-128): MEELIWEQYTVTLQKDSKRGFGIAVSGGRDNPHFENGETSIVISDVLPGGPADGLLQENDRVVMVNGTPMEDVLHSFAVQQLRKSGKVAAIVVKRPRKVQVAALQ

CASK, O14936 = biological target: CASK, O14936
CASK, O14936, sequence (O14936 487-570): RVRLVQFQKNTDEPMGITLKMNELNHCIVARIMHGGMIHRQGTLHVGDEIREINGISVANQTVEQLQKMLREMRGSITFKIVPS

APBA2_1, Q99767 = biological target: T2, APBA2_1, Q99767
T2 sequence (Q99767 563-664, limits assumed, looked up): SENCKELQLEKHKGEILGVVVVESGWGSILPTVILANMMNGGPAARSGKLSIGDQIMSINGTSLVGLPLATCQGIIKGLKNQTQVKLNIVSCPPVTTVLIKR

DVL3, Q92997 = biological target: T3, DVL3, Q92997
T3 sequence (Q92997 244-331, limits assumed, looked up): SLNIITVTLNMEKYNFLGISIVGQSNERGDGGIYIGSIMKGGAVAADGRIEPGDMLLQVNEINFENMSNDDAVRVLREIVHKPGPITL

SNTG1, Q9NSN8 = biological target: T4, SNTG1, Q9NSN8
T4 sequence (Q9NSN8 52-150, limits assumed, looked up): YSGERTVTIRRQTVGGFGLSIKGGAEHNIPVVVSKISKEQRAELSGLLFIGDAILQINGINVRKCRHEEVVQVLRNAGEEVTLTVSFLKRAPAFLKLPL

ARHGEF12, Q9NZN5-2 = biological target: ARHGEF12, Q9NZN5-2
ARHGEF12, Q9NZN5-2, sequence (Q9NZN5 other isoform, or with tags, fused parts or gaps): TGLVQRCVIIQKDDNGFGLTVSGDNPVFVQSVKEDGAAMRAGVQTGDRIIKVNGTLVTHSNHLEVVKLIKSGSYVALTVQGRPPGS

SCRIB_1, Q14160 = biological target: SCRIB_1, Q14160
SCRIB_1, Q14160, sequence (Q14160 718-814): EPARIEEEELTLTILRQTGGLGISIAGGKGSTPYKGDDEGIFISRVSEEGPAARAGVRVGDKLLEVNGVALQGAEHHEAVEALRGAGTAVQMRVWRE

APBA3_1, O96018 = biological target: T5, APBA3_1, O96018
T5 sequence (O96018 389-490, limits assumed, looked up): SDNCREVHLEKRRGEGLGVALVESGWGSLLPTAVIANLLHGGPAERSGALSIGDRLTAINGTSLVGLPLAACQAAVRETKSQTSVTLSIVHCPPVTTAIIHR

SCRIB_3, Q14160 = biological target: SCRIB_3, Q14160
SCRIB_3, Q14160, sequence (Q14160 999-1103): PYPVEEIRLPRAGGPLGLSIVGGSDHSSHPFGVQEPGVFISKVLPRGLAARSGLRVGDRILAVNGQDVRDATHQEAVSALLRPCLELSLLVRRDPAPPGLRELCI

PARD3B_1, Q8TEW8 = biological target: T6, PARD3B_1, Q8TEW8
T6 sequence (Q8TEW8 196-299, limits assumed, looked up): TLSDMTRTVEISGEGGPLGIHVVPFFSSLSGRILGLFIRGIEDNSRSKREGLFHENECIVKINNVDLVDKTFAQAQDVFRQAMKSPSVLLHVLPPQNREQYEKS

SNTA1, Q13424 = biological target: T7, SNTA1, Q13424
T7 sequence (Q13424 82-180, limits assumed, looked up): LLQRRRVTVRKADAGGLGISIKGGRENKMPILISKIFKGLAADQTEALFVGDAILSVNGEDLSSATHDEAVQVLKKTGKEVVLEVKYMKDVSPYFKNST

GRIP2_7, Q9C0E4 = biological target: GRIP2_7, Q9C0E4
GRIP2_7, Q9C0E4, sequence (Q9C0E4 934-1023): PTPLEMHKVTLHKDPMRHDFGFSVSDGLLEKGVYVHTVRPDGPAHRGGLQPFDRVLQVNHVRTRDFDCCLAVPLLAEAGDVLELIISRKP

PARD3_3, Q8TEW0 = biological target: PARD3_3, Q8TEW0
PARD3_3, Q8TEW0, sequence (Q8TEW0 582-685): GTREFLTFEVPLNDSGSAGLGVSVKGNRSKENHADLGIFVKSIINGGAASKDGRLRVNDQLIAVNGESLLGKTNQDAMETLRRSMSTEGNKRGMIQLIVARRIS

NHERF4_2, Q86UT5 = biological target: NHERF4_2, Q86UT5
NHERF4_2, Q86UT5, sequence (Q86UT5 220-308): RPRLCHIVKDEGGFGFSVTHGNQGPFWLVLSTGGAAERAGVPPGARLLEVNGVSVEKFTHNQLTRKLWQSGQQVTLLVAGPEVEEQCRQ

DLG2_2, Q15700 = biological target: DLG2_2, Q15700
DLG2_2, Q15700, sequence (Q15700 189-283): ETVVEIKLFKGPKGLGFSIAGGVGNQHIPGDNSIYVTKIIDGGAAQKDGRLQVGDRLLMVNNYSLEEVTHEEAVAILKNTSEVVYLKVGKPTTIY

GORASP1, Q9BQQ3 = biological target: GORASP1, Q9BQQ3
GORASP1, Q9BQQ3, sequence (Q9BQQ3 1-208): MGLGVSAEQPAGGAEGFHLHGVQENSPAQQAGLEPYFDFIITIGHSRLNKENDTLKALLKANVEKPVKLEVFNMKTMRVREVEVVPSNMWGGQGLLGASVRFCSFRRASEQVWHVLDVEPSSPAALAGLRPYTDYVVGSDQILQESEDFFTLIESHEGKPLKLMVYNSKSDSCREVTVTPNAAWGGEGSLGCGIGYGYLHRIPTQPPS

PDZD7_3, Q9H5P4 = biological target: T8, PDZD7_3, Q9H5P4
T8 sequence (Q9H5P4 857-944, limits assumed, looked up): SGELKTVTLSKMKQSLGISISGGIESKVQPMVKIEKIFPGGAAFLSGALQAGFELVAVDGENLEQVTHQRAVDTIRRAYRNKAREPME

HTRA3, P83110 = biological target: T9, HTRA3, P83110
T9 sequence (P83110 354-453, limits assumed, looked up): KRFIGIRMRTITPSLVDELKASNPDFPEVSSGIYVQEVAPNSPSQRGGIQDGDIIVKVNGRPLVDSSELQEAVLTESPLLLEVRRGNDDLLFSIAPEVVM

LIMK2, P53671 = biological target: LIMK2, P53671
LIMK2, P53671, sequence (P53671 143-248): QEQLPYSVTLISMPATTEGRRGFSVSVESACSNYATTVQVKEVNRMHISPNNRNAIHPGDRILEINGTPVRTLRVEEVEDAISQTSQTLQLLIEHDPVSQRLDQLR

TJP3_3, O95049 = biological target: T10, TJP3_3, O95049
T10 sequence (O95049 375-456, limits assumed, looked up): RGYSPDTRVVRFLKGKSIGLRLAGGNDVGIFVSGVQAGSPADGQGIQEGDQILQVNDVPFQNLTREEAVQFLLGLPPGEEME

DFNB31_2, Q9P202 = biological target: T11, DFNB31_2, Q9P202
T11 sequence (Q9P202 274-371, limits assumed, looked up): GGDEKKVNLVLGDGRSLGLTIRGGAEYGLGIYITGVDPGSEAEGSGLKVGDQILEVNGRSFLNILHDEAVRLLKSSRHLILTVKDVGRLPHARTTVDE

GRIP2_3, Q9C0E4 = biological target: GRIP2_3, Q9C0E4
GRIP2_3, Q9C0E4, sequence (Q9C0E4 238-339): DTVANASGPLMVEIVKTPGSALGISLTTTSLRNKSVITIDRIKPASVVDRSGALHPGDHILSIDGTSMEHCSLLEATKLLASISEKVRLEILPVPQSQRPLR

SIPA1L2, Q9P2F8 = biological target: T12, SIPA1L2, Q9P2F8
T12 sequence (Q9P2F8 945-1036, limits assumed, looked up): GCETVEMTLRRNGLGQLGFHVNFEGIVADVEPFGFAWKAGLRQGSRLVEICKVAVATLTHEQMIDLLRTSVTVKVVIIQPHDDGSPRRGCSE

Row | Binder | pKd (MAGI1_2, Q96QZ7) | pKd (TJP1_2, Q07157) | pKd (NHERF3_3, Q5T2W1) | pKd (TJP2_1, Q9UDY2) | pKd (CASK, O14936) | pKd (APBA2_1, Q99767) | pKd (DVL3, Q92997) | pKd (SNTG1, Q9NSN8) | pKd (ARHGEF12, Q9NZN5-2) | pKd (SCRIB_1, Q14160) | pKd (APBA3_1, O96018) | pKd (SCRIB_3, Q14160) | pKd (PARD3B_1, Q8TEW8) | pKd (SNTA1, Q13424) | pKd (GRIP2_7, Q9C0E4) | pKd (PARD3_3, Q8TEW0) | pKd (NHERF4_2, Q86UT5) | pKd (DLG2_2, Q15700) | pKd (GORASP1, Q9BQQ3) | pKd (PDZD7_3, Q9H5P4) | other results
1 | B1 | below the threshold | below the threshold | below the threshold | below the threshold | below the threshold | below the threshold | below the threshold | 4.94 | 4.4 | 4.93 | below the threshold | 4.88 | below the threshold | 4.77 | below the threshold | 3.78 | below the threshold | 4.47 | below the threshold | 5.39 | pKd (HTRA3, P83110): below the threshold; pKd (LIMK2, P53671): below the threshold; pKd (TJP3_3, O95049): below the threshold; pKd (DFNB31_2, Q9P202): below the threshold; pKd (GRIP2_3, Q9C0E4): below the threshold; pKd (SIPA1L2, Q9P2F8): below the threshold
2 | B2 | below the threshold | below the threshold | 4.65 | below the threshold | below the threshold | below the threshold | below the threshold | below the threshold | 4.9 | 3.79 | below the threshold | 4.22 | 4.5 | 3.91 | below the threshold | 3.5 | below the threshold | below the threshold | below the threshold | 4.89 | pKd (HTRA3, P83110): below the threshold; pKd (LIMK2, P53671): below the threshold; pKd (TJP3_3, O95049): below the threshold; pKd (DFNB31_2, Q9P202): below the threshold; pKd (GRIP2_3, Q9C0E4): below the threshold; pKd (SIPA1L2, Q9P2F8): below the threshold
3 | B3 | below the threshold | below the threshold | below the threshold | below the threshold | below the threshold | below the threshold | below the threshold | 3.54 | 3.75 | below the threshold | below the threshold | 3.67 | below the threshold | below the threshold | below the threshold | below the threshold | below the threshold | below the threshold | below the threshold | 4.38 | pKd (HTRA3, P83110): below the threshold; pKd (LIMK2, P53671): below the threshold; pKd (TJP3_3, O95049): below the threshold; pKd (DFNB31_2, Q9P202): below the threshold; pKd (GRIP2_3, Q9C0E4): 3.69; pKd (SIPA1L2, Q9P2F8): below the threshold
4 | B4 | below the threshold | below the threshold | 4.67 | below the threshold | below the threshold | below the threshold | below the threshold | 4 | 4.43 | 4.3 | below the threshold | 4.97 | 3.89 | 4.9 | below the threshold | below the threshold | below the threshold | 3.5 | below the threshold | 4.68 | pKd (HTRA3, P83110): below the threshold; pKd (LIMK2, P53671): below the threshold; pKd (TJP3_3, O95049): below the threshold; pKd (DFNB31_2, Q9P202): 3.94; pKd (GRIP2_3, Q9C0E4): below the threshold; pKd (SIPA1L2, Q9P2F8): below the threshold
